The subject of data set [1] is HeLa Kyoto. Nature of the data set: solubility in G1/S (NP-40 vs SDS abundance) (log2 ratio); higher = more soluble. To be noted: cell cycle stage: G1/S.
Data set [2] deals with HeLa Kyoto. Nature of the data set: melting temperature (median over replicates), in situ; higher = more thermally stable.
Data set [3] deals with HeLa Kyoto. Nature of the data set: solubility change mitosis vs G1/S (difference of NP-40 vs SDS log2 ratios) (log2 ratio difference); higher = more soluble in mitosis.
The test system of data set [4] is HeLa Kyoto. The data set is described as follows: thermal stability score vs G1/S (z-score of summed log2 fold changes over temperatures); higher = more thermally stable than in G1/S.
The mark [5] stands for this setting: cell cycle stage: early G1 (4.5 h after nocodazole release).
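For melting temperature (median over replicates), in situ in this document: HeLa Kyoto cells synchronized by double thymidine or nocodazole block, proteins quantified by TMT10plex mass spectrometry, three independent biological replicates.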
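For solubility change mitosis vs G1/S (difference of NP-40 vs SDS log2 ratios) in this document: synchronized HeLa Kyoto cells (double thymidine block for G1/S, nocodazole release for mitosis), protein amounts in NP-40 versus SDS lysates quantified by mass spectrometry, three biological replicates.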
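For solubility in G1/S (NP-40 vs SDS abundance) in this document: HeLa Kyoto cells arrested at G1/S by double thymidine block, proteins quantified by TMT10plex mass spectrometry in mild NP-40 versus SDS extracts, three biological replicates.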
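For thermal stability score vs G1/S (z-score of summed log2 fold changes over temperatures) in this document: synchronized HeLa Kyoto cells, proteins quantified by TMT10plex mass spectrometry, three biological replicates, mitosis taken 0.5 h after nocodazole release, G1/S directly after double thymidine block.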

Take “MAAQVTLEDALSNVDLLEELPLPDQQPCIEPPPSSLLYQPNFNTNFEDRNAFVTGIARYIEQATVHSSMNEMLEEGQEYAVMLYTWRSCSRAIPQVKCNEQPNRVEIYEKTVEVLEPEVTKLMNFMYFQRNAIERFCGEVRRLCHAERRKDFVSEAYLITLGKFINMFAVLDELKNMKCSVKNDHSAYKRAAQFLRKMADPQSIQESQNLSMFLANHNKITQSLQQQLEVISGYEELLADIVNLCVDYYENRMYLTPSEKHMLLKVMGFGLYLMDGSVSNIYKLDAKKRINLSKIDKYFKQLQVVPLFGDMQIELARYIKTSAHYEENKSRWTCTSSGSSPQYNICEQMIQIREDHMRFISELARYSNSEVVTGSGRQEAQKTDAEYRKLFDLALQGLQLLSQWSAHVMEVYSWKLVHPTDKYSNKDCPDSAEEYERATRYNYTSEEKFALVEVIAMIKGLQVLMGRMESVFNHAIRHTVYAALQDFSQVTLREPLRQAIKKKKNVIQSVLQAIRKTVCDWETGHEPFNDPALRGEKDPKSGFDIKVPRRAVGPSSTQLYMVRTMLESLIADKSGSKKTLRSSLEGPTILDIEKFHRESFFYTHLINFSETLQQCCDLSQLWFREFFLELTMGRRIQFPIEMSMPWILTDHILETKEASMMEYVLYSLDLYNDSAHYALTRFNKQFLYDEIEAEVNLCFDQFVYKLADQIFAYYKVMAGSLLLDKRLRSECKNQGATIHLPPSNRYETLLKQRHVQLLGRSIDLNRLITQRVSAAMYKSLELAIGRFESEDLTSIVELDGLLEINRMTHKLLSRYLTLDGFDAMFREANHNVSAPYGRITLHVFWELNYDFLPNYCYNGSTNRFVRTVLPFSQEFQRDKQPNAQPQYLHGSKALNLAYSSIYGSYRNFVGPPHFQVICRLLGYQGIAVVMEELLKVVKSLLQGTILQYVKTLMEVMPKICRLPRHEYGSPGILEFFHHQLKDIVEYAELKTVCFQNLREVGNAILFCLLIEQSLSLEEVCDLLHAAPFQNILPRVHVKEGERLDAKMKRLESKYAPLHLVPLIERLGTPQQIAIAREGDLLTKERLCCGLSMFEVILTRIRSFLDDPIWRGPLPSNGVMHVDECVEFHRLWSAMQFVYCIPVGTHEFTVEQCFGDGLHWAGCMIIVLLGQQRRFAVLDFCYHLLKVQKHDGKDEIIKNVPLKKMVERIRKFQILNDEIITILDKYLKSGDGEGTPVEHVRCFQPPIHQSLASS [CYFIP1]”: the “solubility in G1/S (log2)” value with HeLa Kyoto [1] is -0.33. The melting temperature with HeLa Kyoto [2] (cell cycle stage: G1/S) was 51.6 °C; in the data set on HeLa Kyoto [2] (cell cycle stage: mitosis), 51.1 °C. Besides, in the data set with HeLa Kyoto [3], the “solubility change mitosis (log2)” value was -0.136. The thermal stability score in the data set with HeLa Kyoto [4] (setting [5]) was -0.593; with HeLa Kyoto [4] (cell cycle stage: mitosis), -0.58.

“MAARRGALIVLEGVDRAGKSTQSRKLVEALCAAGHRAELLRFPERSTEIGKLLSSYLQKKSDVEDHSVHLLFSANRWEQVPLIKEKLSQGVTLVVDRYAFSGVAFTGAKENFSLDWCKQPDVGLPKPDLVLFLQLQLADAAKRGAFGHERYENGAFQERALRCFHQLMKDTTLNWKMVDASKSIEAVHEDIRVLSEDAIRTATEKPLGELWK [DTYMK]”: the “solubility in G1/S (log2)” value in the data set with HeLa Kyoto [1] is -0.0236. The figures for the melting temperature in the data set with HeLa Kyoto [2] (cell cycle stage: G1/S) and with HeLa Kyoto [2] (cell cycle stage: mitosis) were 56.9 °C and 54.4 °C, respectively. The “solubility change mitosis (log2)” value in the data set on HeLa Kyoto [3] was found to be 0.00796. In addition, the thermal stability score in the data set on HeLa Kyoto [4] (setting [5]) is -8.56; in the data set with HeLa Kyoto [4] (cell cycle stage: mitosis) it was -6.57.

In the case of “MAARRITQETFDAVLQEKAKRYHMDASGEAVSETLQFKAQDLLRAVPRSRAEMYDDVHSDGRYSLSGSVAHSRDAGREGLRSDVFPGPSFRSSNPSISDDSYFRKECGRDLEFSHSDSRDQVIGHRKLGHFRSQDWKFALRGSWEQDFGHPVSQESSWSQEYSFGPSAVLGDFGSSRLIEKECLEKESRDYDVDHPGEADSVLRGGSQVQARGRALNIVDQEGSLLGKGETQGLLTAKGGVGKLVTLRNVSTKKIPTVNRITPKTQGTNQIQKNTPSPDVTLGTNPGTEDIQFPIQKIPLGLDLKNLRLPRRKMSFDIIDKSDVFSRFGIEIIKWAGFHTIKDDIKFSQLFQTLFELETETCAKMLASFKCSLKPEHRDFCFFTIKFLKHSALKTPRVDNEFLNMLLDKGAVKTKNCFFEIIKPFDKYIMRLQDRLLKSVTPLLMACNAYELSVKMKTLSNPLDLALALETTNSLCRKSLALLGQTFSLASSFRQEKILEAVGLQDIAPSPAAFPNFEDSTLFGREYIDHLKAWLVSSGCPLQVKKAEPEPMREEEKMIPPTKPEIQAKAPSSLSDAVPQRADHRVVGTIDQLVKRVIEGSLSPKERTLLKEDPAYWFLSDENSLEYKYYKLKLAEMQRMSENLRGADQKPTSADCAVRAMLYSRAVRNLKKKLLPWQRRGLLRAQGLRGWKARRATTGTQTLLSSGTRLKHHGRQAPGLSQAKPSLPDRNDAAKDCPPDPVGPSPQDPSLEASGPSPKPAGVDISEAPQTSSPCPSADIDMKTMETAEKLARFVAQVGPEIEQFSIENSTDNPDLWFLHDQNSSAFKFYRKKVFELCPSICFTSSPHNLHTGGGDTTGSQESPVDLMEGEAEFEDEPPPREAELESPEVMPEEEDEDDEDGGEEAPAPGGAGKSEGSTPADGLPGEAAEDDLAGAPALSQASSGTCFPRKRISSKSLKVGMIPAPKRVCLIQEPKVHEPVRIAYDRPRGRPMSKKKKPKDLDFAQQKLTDKNLGFQMLQKMGWKEGHGLGSLGKGIREPVSVGTPSEGEGLGADGQEHKEDTFDVFRQRMMQMYRHKRANK [SUGP2]”, the “solubility in G1/S (log2)” value in the data set with HeLa Kyoto [1] was -0.497. For the same sequence, the melting temperature in the data set on HeLa Kyoto [2] (cell cycle stage: G1/S) worked out at 46 °C; in the data set with HeLa Kyoto [2] (cell cycle stage: mitosis), 48.8 °C. In the data set on HeLa Kyoto [3], the “solubility change mitosis (log2)” value came to 0.277. Further, the thermal stability score in the data set on HeLa Kyoto [4] (setting [5]) came out at 1.78; in the data set on HeLa Kyoto [4] (cell cycle stage: mitosis), 2.89.

Regarding “MAARSWQDELAQQAEEGSARLREMLSVGLGFLRTELGLDLGLEPKRYPGWVILVGTGALGLLLLFLLGYGWAAACAGARKKRRSPPRKREEAAAVPAAAPDDLALLKNLRSEEQKKKNRKKLSEKPKPNGRTVEVAEGEAVRTPQSVTAKQPPEIDKKNEKSKKNKKKSKSDAKAVQNSSRHDGKEVDEGAWETKISHREKRQQRKRDKVLTDSGSLDSTIPGIENTITVTTEQLTTASFPVGSKKNKGDSHLNVQVSNFKSGKGDSTLQVSSGLNENLTVNGGGWNEKSVKLSSQISAGEEKWNSVSPASAGKRKTEPSAWSQDTGDANTNGKDWGRSWSDRSIFSGIGSTAEPVSQSTTSDYQWDVSRNQPYIDDEWSGLNGLSSADPNSDWNAPAEEWGNWVDEERASLLKSQEPIPDDQKVSDDDKEKGEGALPTGKSKKKKKKKKKQGEDNSTAQDTEELEKEIREDLPVNTSKTRPKQEKAFSLKTISTSDPAEVLVKNSQPIKTLPPATSTEPSVILSKSDSDKSSSQVPPILQETDKSKSNTKQNSVPPSQTKSETSWESPKQIKKKKKARRET [MTDH]”, the “solubility in G1/S (log2)” value with HeLa Kyoto [1] is -0.39. Moreover, the melting temperature in the data set with HeLa Kyoto [2] (cell cycle stage: G1/S) amounted to 59.1 °C; in the data set with HeLa Kyoto [2] (cell cycle stage: mitosis), 58.3 °C. The “solubility change mitosis (log2)” value in the data set with HeLa Kyoto [3] turned out to be 0.414. Besides, the thermal stability score in the data set on HeLa Kyoto [4] (setting [5]) is -2.14; in the data set with HeLa Kyoto [4] (cell cycle stage: mitosis), -6.31.

In the case of “MAARVLIIGSGGREHTLAWKLAQSHHVKQVLVAPGNAGTACSEKISNTAISISDHTALAQFCKEKKIEFVVVGPEAPLAAGIVGNLRSAGVQCFGPTAEAAQLESSKRFAKEFMDRHGIPTAQWKAFTKPEEACSFILSADFPALVVKASGLAAGKGVIVAKSKEEACKAVQEIMQEKAFGAAGETIVIEELLDGEEVSCLCFTDGKTVAPMPPAQDHKRLLEGDGGPNTGGMGAYCPAPQVSNDLLLKIKDTVLQRTVDGMQQEGTPYTGILYAGIMLTKNGPKVLEFNCRFGDPECQVILPLLKSDLYEVIQSTLDGLLCTSLPVWLENHTALTVVMASKGYPGDYTKGVEITGFPEAQALGLEVFHAGTALKNGKVVTHGGRVLAVTAIRENLISALEEAKKGLAAIKFEGAIYRKDVGFRAIAFLQQPRSLTYKESGVDIAAGNMLVKKIQPLAKATSRSGCKVDLGGFAGLFDLKAAGFKDPLLASGTDGVGTKLKIAQLCNKHDTIGQDLVAMCVNDILAQGAEPLFFLDYFSCGKLDLSVTEAVVAGIAKACGKAGCALLGGETAEMPDMYPPGEYDLAGFAVGAMERDQKLPHLERITEGDVVVGIASSGLHSNGFSLVRKIVAKSSLQYSSPAPDGCGDQTLGDLLLTPTRIYSHSLLPVLRSGHVKAFAHITGGGLLENIPRVLPEKLGVDLDAQTWRIPRVFSWLQQEGHLSEEEMARTFNCGVGAVLVVSKEQTEQILRDIQQHKEEAWVIGSVVARAEGSPRVKVKNLIESMQINGSVLKNGSLTNHFSFEKKKARVAVLISGTGSNLQALIDSTREPNSSAQIDIVISNKAAVAGLDKAERAGIPTRVINHKLYKNRVEFDSAIDLVLEEFSIDIVCLAGFMRILSGPFVQKWNGKMLNIHPSLLPSFKGSNAHEQALETGVTVTGCTVHFVAEDVDAGQIILQEAVPVKRGDTVATLSERVKLAEHKIFPAALQLVASGTVQLGENGKICWVKEE [GART]”, the “solubility in G1/S (log2)” value with HeLa Kyoto [1] was 0.201. Also, the figures for the melting temperature in the data set with HeLa Kyoto [2] (cell cycle stage: G1/S) and in the data set with HeLa Kyoto [2] (cell cycle stage: mitosis) were 50.8 °C and 51 °C, respectively. In the data set with HeLa Kyoto [3], the “solubility change mitosis (log2)” value was -0.137. The thermal stability score was determined as 0.0198 with HeLa Kyoto [4] (setting [5]) and 0.936 with HeLa Kyoto [4] (cell cycle stage: mitosis).

These data come from the supplement of paper PMC5998384.
